This is an account of results in article PMC7108423 (The International Journal of Biochemistry & Cell Biology, 2005).

Read-outs that look alike come from different tables or passages of the source.

What all share (test): SPR
Assay [1] addresses T1, recombinant SARS-CoV N protein (SARS coronavirus (SARS-CoV), UniProt P59595 1-422).
For assay [2], the target named is T1, recombinant SARS-CoV N protein. This is another data set of the same source.
In assay [3] the target is His-tagged N11 (aa283-422 of SARS-CoV N protein) (SARS coronavirus (SARS-CoV), UniProt P59595 283-422).
Chain of His-tagged N11 (aa283-422 of SARS-CoV N protein) (P59595 283-422): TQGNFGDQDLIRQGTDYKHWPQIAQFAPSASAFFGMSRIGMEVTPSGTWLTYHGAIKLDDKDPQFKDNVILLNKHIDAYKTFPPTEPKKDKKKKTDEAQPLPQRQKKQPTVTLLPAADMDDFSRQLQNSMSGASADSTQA
Assay [4] deals with T1, recombinant SARS-CoV N protein. The source holds these as a separate data set.

T1 sequence (P59595 whole entry): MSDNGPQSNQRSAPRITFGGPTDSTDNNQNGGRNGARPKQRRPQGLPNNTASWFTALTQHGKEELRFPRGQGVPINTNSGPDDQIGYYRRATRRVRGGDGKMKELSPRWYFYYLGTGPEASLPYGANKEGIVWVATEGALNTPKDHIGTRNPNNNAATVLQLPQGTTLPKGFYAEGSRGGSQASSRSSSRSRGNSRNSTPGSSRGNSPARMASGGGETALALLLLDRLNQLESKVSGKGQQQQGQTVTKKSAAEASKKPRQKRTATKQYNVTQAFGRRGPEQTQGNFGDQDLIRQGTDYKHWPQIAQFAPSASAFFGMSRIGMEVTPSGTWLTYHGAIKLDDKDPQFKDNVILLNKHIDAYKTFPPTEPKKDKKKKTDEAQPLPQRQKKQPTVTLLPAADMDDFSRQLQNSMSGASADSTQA

B1: MCT peptide (residues 197-221 of SARS-CoV M protein) (peptide)
peptide: RYRIGNYKLNTDHAGSNDNIALLVQ
On to B1, for which, in assay [1], the equilibrium dissociation constant (Kd) was found to be 75 ± 5 µM, the koff turned out to be 0.0394 ± 0.002 s⁻¹ and the kon turned out to be 509 ± 42 M⁻¹ s⁻¹.

B2: His-tagged SARS-CoV ME (endodomain of M protein, aa102-221) (domain or fragment)
chain: FARTRSMWSFNPETNILLNVPLRGTIVTRPLMESELVIGAVIIRGHLRMAGHSLGRCDIKDLPKEITVATSRTLSYYKLGASQRVGTDSGFAAYNRYRIGNYKLNTDHAGSNDNIALLVQ
Turning to B2, the Kd in assay [2] was found to be 49.2 µM; in assay [3], 0.61 ± 0.06 µM; in assay [1] it was 0.55 ± 0.04 µM; in assay [4], 21.2 µM. Moreover, in assay [1], the koff worked out at 0.00223 s⁻¹. Besides, the kon in assay [1] was determined as 4180 M⁻¹ s⁻¹.
